Self-cleavage data for 38 variants are collected here from the RNAGym collection of RNA variant scans (doi:10.7554/elife.80360).

The labels stand for the following.
B1: Hairpin Ribozyme (parent)
chain: GUCCUCUUUCACGUGCGCGUGAAAGAGAGAAGUGAACCAGAGAAACACACGUUGUGGUAUAUUACCUGGUA

Variants of B1 are the subject of this data set. In words: self-cleavage, relative activity (ratio to wild type); higher = more cleavage; co-transcriptional.
Regarding GUCCUCUUUCACGUGCGCGUGUGAGAGAGAAGUGAACCAGAGAAACACACGUUGUGGUAUAUUACCUGGUA, the self-cleavage amounted to 0.72.
As to GUCCUCUUUCACGUGCGCGUGGAAGAGAGAAGUGAACCAGAGAAACACACGUUGUGGUGUAUUACCUGGUA, the self-cleavage came out at 0.212.
Take GUCCUCUUUCACGUGCGCGUGGAAGAGAGAAGUGAACCAGAGAAACACAAGUUGUGGUAUAUUACCUGGUA: the self-cleavage is 0.227.
GUCCUCUUUCACGUGCGCGUGUAAGAGAGAAGUGAACCAGAGAAACACACGUUGUGGUAUAUUACAUGGUA: the self-cleavage is 0.209.
With GUCCUCUUUCACGUGCGCGUGUAAGAGAGAAGUGAACCAGAGAAACACACGUUGUGGUAUAUUACGUGGUA, the self-cleavage stood at 0.175.
The same measure for GUCCUCUUUCACGUGCGCGUGGAAGAGAGAAGUGAACCAGAGAAACACACGCUGUGGUAUAUUACCUGGUA: 0.791.
Under GUCCUCUUUCACGUGCGCGUGGAAGAGAGAAGUGAACCAGAGAAACACACGGUGUGGUAUAUUACCUGGUA stands 0.692.
GUCCUCUUUCACGUGCGCGUGGAAGAGAGAAGUGAACCAGAGAAACACACGUUGUGGUAUAUUACCUGGCA: the self-cleavage turned out to be 0.57.
Take GUCCUCUUUCACGUGCGCGUGUAAGAGAGAAGUGAACCAGCGAAACACACGUUGUGGUAUAUUACCUGGUA: the self-cleavage came out at 0.87.
Under GUCCUCUUUCACGUGCGCGUGUAAGAGAGAAGUGAACCAGAGAAACAGACGUUGUGGUAUAUUACCUGGUA stands 0.111.
Under GUCCUCUUUCACGUGCGCGUGUAAGAGAGAAGUGAACCAGAGAAACAUACGUUGUGGUAUAUUACCUGGUA stands 0.0855; under GUCCUCUUUCACGUGCGCGUGUAAGAGAGAAGUGAACCAGAGAUACACACGUUGUGGUAUAUUACCUGGUA, 0.173.
The same measure for GUCCUCUUUCACGUGCGCGUGGAAGAGAGAAGUGAACCAGAGAAACACACGUUGUGGAAUAUUACCUGGUA: 0.657; for GUCCUCUUUCACGUGCGCGUGUAAGAGAGAAGUGGACCAGAGAAACACACGUUGUGGUAUAUUACCUGGUA: 0.84; for GUCCUCUUUCACGUGCGCGUGUAAGAGAGAAGUGUACCAGAGAAACACACGUUGUGGUAUAUUACCUGGUA: 0.611.
With GUCCUCUUUCACGUGCGCGUGUAAGAGAGAAGUGCACCAGAGAAACACACGUUGUGGUAUAUUACCUGGUA, the self-cleavage was found to be 0.762.
Under GUCCUCUUUCACGUGCGCGUGGAAGAGAGAAGUGAACCAGAGAAACACACGUUGUGGUAUAUUACCUGGUU stands 0.702; under GUCCUCUUUCACGUGCGCGUGGAAGAGAGAAGUGAACCAGAGAAACACACGUUGUGGUAUAUUACCUGGUG, 0.907.
On to GUCCUCUUUCACGUGCGCGUGUAAGAGAGUAGUGAACCAGAGAAACACACGUUGUGGUAUAUUACCUGGUA, for which the self-cleavage is 0.262.
The same measure for GUCCUCUUUCACGUGCGCGUGUACGAGAGAAGUGAACCAGAGAAACACACGUUGUGGUAUAUUACCUGGUA: 0.71; for GUCCUCUUUCACGUGCGCGUGUAUGAGAGAAGUGAACCAGAGAAACACACGUUGUGGUAUAUUACCUGGUA: 0.554; for GUCCUCUUUCACGUGCGCGUGGAAGAGAGAAGUGAACCAGAGAAACACACGUGGUGGUAUAUUACCUGGUA: 0.936.
GUCCUCUUUCACGUGCGCGUGGAAGAGAGAAGUGAACCAGAAAAACACACGUUGUGGUAUAUUACCUGGUA: the self-cleavage came to 0.143.
Under GUCCUCUUUCACGUGCGCGUGGAAGAGAGAAGUGAACCAGAGAAACACCCGUUGUGGUAUAUUACCUGGUA stands 0.164.
Take GUCCUCUUUCACGUGCGCGUGGAAGAGAGAAGUGAACCAGAGAAACACGCGUUGUGGUAUAUUACCUGGUA: the self-cleavage came to 0.345.
The same measure for GUCCUCUUUCACGUGCGCGUGUAAGAGAGAAGUGAACCAGAGAACCACACGUUGUGGUAUAUUACCUGGUA: 0.179.
Under GUCCUCUUUCACGUGCGCGUGUAAGAGAGAAGUGAACCAGAGAAGCACACGUUGUGGUAUAUUACCUGGUA stands 0.225; under GUCCUCUUUCACGUGCGCGUGUAAGAGAGAACUGAACCAGAGAAACACACGUUGUGGUAUAUUACCUGGUA, 0.123; under GUCCUCUUUCACGUGCGCGUGUAAGAGAGAAGUGAACCCGAGAAACACACGUUGUGGUAUAUUACCUGGUA, 0.456.
The same measure for GUCCUCUUUCACGUGCGCGUGUAAGAGAGAAGUGAACCGGAGAAACACACGUUGUGGUAUAUUACCUGGUA: 0.277; for GUCCUCUUUCACGUGCGCGUGGAAGAGAGAAGUGAACCAUAGAAACACACGUUGUGGUAUAUUACCUGGUA: 0.181.
In the case of GUCCUCUUUCACGUGCGCGUGGAAGAGAGAAGUGAACCAGAGAAACACACGUUGUCGUAUAUUACCUGGUA, the self-cleavage was found to be 0.137.
Under GUCCUCUUUCACGUGCGCGUGUAAGAGAUAAGUGAACCAGAGAAACACACGUUGUGGUAUAUUACCUGGUA stands 0.071.
Under GUCCUCUUUCACGUGCGCGUGUAAGAGACAAGUGAACCAGAGAAACACACGUUGUGGUAUAUUACCUGGUA stands 0.214; under GUCCUCUUUCACGUGCGCGUGGAAGAGAGAAGUGAACCAGAGAAACACACAUUGUGGUAUAUUACCUGGUA, 1.05; under GUCCUCUUUCACGUGCGCGUGGAAGAGAGAAGUGAACCAGAGAAACACACUUUGUGGUAUAUUACCUGGUA, 0.957.
Take GUCCUCUUUCACGUGCGCGUGUAAGAGAGAAGUGAUCCAGAGAAACACACGUUGUGGUAUAUUACCUGGUA: the self-cleavage came out at 0.58.
Under GUCCUCUUUCACGUGCGCGUGGAAGAGAGAAGUGAACCAGAGAAACACACGUUGUGGUAUAUUAACUGGUA stands 0.631.
